The text below walks through data of article PMC9482650, “Quantitative fragmentomics allow affinity mapping of interactomes” (Nature Communications, 2022).

Chain of SCRIB_1, Q14160 (Q14160 718-814): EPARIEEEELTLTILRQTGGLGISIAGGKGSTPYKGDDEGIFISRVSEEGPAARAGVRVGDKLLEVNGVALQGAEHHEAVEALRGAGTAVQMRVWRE
Chain of SCRIB_3, Q14160 (Q14160 999-1103): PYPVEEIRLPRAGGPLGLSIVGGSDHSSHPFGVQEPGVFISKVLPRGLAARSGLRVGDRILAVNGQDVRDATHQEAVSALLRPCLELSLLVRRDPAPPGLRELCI
Chain of TJP1_2, Q07157 (Q07157 181-274): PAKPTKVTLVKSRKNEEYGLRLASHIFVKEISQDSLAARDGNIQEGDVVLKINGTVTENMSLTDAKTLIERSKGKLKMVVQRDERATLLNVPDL
Chain of GRIP2_7, Q9C0E4 (Q9C0E4 934-1023): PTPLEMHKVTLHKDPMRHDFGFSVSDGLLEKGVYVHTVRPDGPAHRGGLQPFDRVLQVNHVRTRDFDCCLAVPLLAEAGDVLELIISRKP
Chain of PARD3_3, Q8TEW0 (Q8TEW0 582-685): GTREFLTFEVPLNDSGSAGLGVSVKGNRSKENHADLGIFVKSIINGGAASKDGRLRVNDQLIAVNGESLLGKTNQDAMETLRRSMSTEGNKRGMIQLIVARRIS
Chain of NHERF4_2, Q86UT5 (Q86UT5 220-308): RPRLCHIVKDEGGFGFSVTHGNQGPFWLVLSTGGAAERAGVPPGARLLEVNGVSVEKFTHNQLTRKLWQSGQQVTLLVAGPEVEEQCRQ
Chain of TJP2_1, Q9UDY2 (Q9UDY2 24-128): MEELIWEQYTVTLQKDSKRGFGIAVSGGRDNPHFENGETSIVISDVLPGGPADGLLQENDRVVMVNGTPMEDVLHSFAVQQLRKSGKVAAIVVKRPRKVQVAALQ
Chain of MAGI1_2, Q96QZ7 (Q96QZ7 456-580): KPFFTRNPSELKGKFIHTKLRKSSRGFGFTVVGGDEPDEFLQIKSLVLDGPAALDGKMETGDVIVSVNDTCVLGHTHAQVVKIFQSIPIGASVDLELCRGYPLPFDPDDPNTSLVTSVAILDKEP

One experiment concerns the target T1, SNTG1, Q9NSN8.
T1 sequence (Q9NSN8 52-150, limits assumed, looked up): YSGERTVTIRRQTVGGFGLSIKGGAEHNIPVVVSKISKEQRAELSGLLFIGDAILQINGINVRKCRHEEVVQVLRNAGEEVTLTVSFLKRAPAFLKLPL
In words: holdup assay. The settings on record: plain residues with an end cap or a label only (N-terminal biotin on a linker: ado-ado). Also noted: key: below the threshold = too weak to quantify, mostly under pKd 3.1 to 4.
For MLPANYVEAI [NEB, P20929], the pKd result is listed as “below the threshold”.
For TKDKVQETQI [LRRC4, Q9HBW1], the pKd was found to be 4.97.

A further experiment has as its target TJP2_1, Q9UDY2. In words: holdup assay. Set-up: key: below the threshold = too weak to quantify, mostly under pKd 3.1 to 4. Conditions: plain residues with an end cap or a label only (N-terminal biotin on a linker: ado-ado).
Consider MLPANYVEAI [NEB, P20929], for which the pKd result is given as “below the threshold”.
TKDKVQETQI [LRRC4, Q9HBW1]: the negative-log Kd (pKd) result was “below the threshold”.

A further experiment addresses PARD3_3, Q8TEW0. In words: holdup assay. Also noted: key: below the threshold = too weak to quantify, mostly under pKd 3.1 to 4. Conditions: plain residues with an end cap or a label only (N-terminal biotin on a linker: ado-ado).
Regarding MLPANYVEAI [NEB, P20929], the pKd result is recorded as “below the threshold”.
TKDKVQETQI [LRRC4, Q9HBW1]: the pKd was 3.81.

Another experiment concerns the target T2, HTRA3, P83110.
T2 sequence (P83110 354-453, limits assumed, looked up): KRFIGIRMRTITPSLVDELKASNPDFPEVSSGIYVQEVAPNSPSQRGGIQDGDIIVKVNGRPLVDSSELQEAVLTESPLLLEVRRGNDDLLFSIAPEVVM
Nature of the experiment: holdup assay. Set-up: key: below the threshold = too weak to quantify, mostly under pKd 3.1 to 4. Conditions: plain residues with an end cap or a label only (N-terminal biotin on a linker: ado-ado).
On to MLPANYVEAI [NEB, P20929], for which the pKd result is “below the threshold”.
For TKDKVQETQI [LRRC4, Q9HBW1], the pKd entry is given as “below the threshold”.

The next experiment has as its target T3, PDZD7_3, Q9H5P4.
T3 sequence (Q9H5P4 857-944, limits assumed, looked up): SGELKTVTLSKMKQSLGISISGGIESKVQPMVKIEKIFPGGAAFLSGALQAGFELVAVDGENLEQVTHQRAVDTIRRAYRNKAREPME
Nature of the experiment: holdup assay. Conditions: plain residues with an end cap or a label only (N-terminal biotin on a linker: ado-ado). Set-up: key: below the threshold = too weak to quantify, mostly under pKd 3.1 to 4.
For MLPANYVEAI [NEB, P20929], the pKd amounted to 3.52.
For the molecule TKDKVQETQI [LRRC4, Q9HBW1], the negative logarithm of the Kd (pKd) turned out to be 5.51.

The next experiment has as its target SCRIB_3, Q14160. Nature of the experiment: holdup assay. Set-up: key: below the threshold = too weak to quantify, mostly under pKd 3.1 to 4. Conditions: plain residues with an end cap or a label only (N-terminal biotin on a linker: ado-ado).
Turning to MLPANYVEAI [NEB, P20929], the pKd entry is on record as “below the threshold”.
Turning to TKDKVQETQI [LRRC4, Q9HBW1], the pKd was 5.

For the next experiment, the target named is T4, CARD11, Q9BXL7.
T4 sequence (Q9BXL7 662-765, limits assumed, looked up): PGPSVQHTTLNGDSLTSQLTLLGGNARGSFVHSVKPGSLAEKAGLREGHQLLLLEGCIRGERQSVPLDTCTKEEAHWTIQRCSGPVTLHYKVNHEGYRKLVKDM
In words: holdup assay. Set-up: key: below the threshold = too weak to quantify, mostly under pKd 3.1 to 4. Conditions: plain residues with an end cap or a label only (N-terminal biotin on a linker: ado-ado).
As for MLPANYVEAI [NEB, P20929], the pKd result is reported as “below the threshold”.
Turning to TKDKVQETQI [LRRC4, Q9HBW1], the pKd result was “below the threshold”.

The target in a further experiment is GORASP1, Q9BQQ3. Nature of the experiment: holdup assay. Also noted: key: below the threshold = too weak to quantify, mostly under pKd 3.1 to 4. Conditions: plain residues with an end cap or a label only (N-terminal biotin on a linker: ado-ado).
Chain of GORASP1, Q9BQQ3 (Q9BQQ3 1-208): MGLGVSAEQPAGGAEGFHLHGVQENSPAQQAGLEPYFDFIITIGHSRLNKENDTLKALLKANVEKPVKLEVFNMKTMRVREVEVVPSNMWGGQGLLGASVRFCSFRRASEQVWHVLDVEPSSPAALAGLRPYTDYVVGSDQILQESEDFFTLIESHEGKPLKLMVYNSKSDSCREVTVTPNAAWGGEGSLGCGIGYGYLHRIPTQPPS
MLPANYVEAI [NEB, P20929] yielded a pKd of 3.7.
TKDKVQETQI [LRRC4, Q9HBW1]: the pKd entry is “below the threshold”.

The target in a further experiment is T5, APBA2_2, Q99767.
T5 sequence (Q99767 654-744, limits assumed, looked up): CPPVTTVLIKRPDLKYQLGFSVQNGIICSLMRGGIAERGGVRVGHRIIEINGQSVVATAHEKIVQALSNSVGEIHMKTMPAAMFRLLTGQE
In words: holdup assay. Set-up: key: below the threshold = too weak to quantify, mostly under pKd 3.1 to 4. Conditions: plain residues with an end cap or a label only (N-terminal biotin on a linker: ado-ado).
Regarding MLPANYVEAI [NEB, P20929], the pKd entry was “below the threshold”.
As to TKDKVQETQI [LRRC4, Q9HBW1], the pKd result is listed as “below the threshold”.

In another experiment the target is T6, FRMPD1, Q5SYB0.
T6 sequence (Q5SYB0 52-145, limits assumed, looked up): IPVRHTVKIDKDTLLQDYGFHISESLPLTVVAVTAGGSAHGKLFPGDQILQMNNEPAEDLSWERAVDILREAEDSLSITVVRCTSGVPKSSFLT
Nature of the experiment: holdup assay. Also noted: key: below the threshold = too weak to quantify, mostly under pKd 3.1 to 4. The settings on record: plain residues with an end cap or a label only (N-terminal biotin on a linker: ado-ado).
As for MLPANYVEAI [NEB, P20929], the pKd entry is “below the threshold”.
Take TKDKVQETQI [LRRC4, Q9HBW1]: the pKd result is “below the threshold”.

Another experiment has as its target MAGI1_2, Q96QZ7. In words: holdup assay. The settings on record: plain residues with an end cap or a label only (N-terminal biotin on a linker: ado-ado). Also noted: key: below the threshold = too weak to quantify, mostly under pKd 3.1 to 4.
Take MLPANYVEAI [NEB, P20929]: the pKd result is “below the threshold”.
For the molecule TKDKVQETQI [LRRC4, Q9HBW1], the pKd result is “below the threshold”.

Another experiment concerns the target GRIP2_7, Q9C0E4. In words: holdup assay. The settings on record: plain residues with an end cap or a label only (N-terminal biotin on a linker: ado-ado). Also noted: key: below the threshold = too weak to quantify, mostly under pKd 3.1 to 4.
Regarding MLPANYVEAI [NEB, P20929], the pKd result is reported as “below the threshold”.
On to TKDKVQETQI [LRRC4, Q9HBW1], for which the pKd entry is given as “below the threshold”.

The next experiment addresses NHERF4_2, Q86UT5. Nature of the experiment: holdup assay. Also noted: key: below the threshold = too weak to quantify, mostly under pKd 3.1 to 4. The settings on record: plain residues with an end cap or a label only (N-terminal biotin on a linker: ado-ado).
As for MLPANYVEAI [NEB, P20929], the pKd result is given as “below the threshold”.
Take TKDKVQETQI [LRRC4, Q9HBW1]: the pKd result is “below the threshold”.

Another experiment addresses SCRIB_1, Q14160. In words: holdup assay. Also noted: key: below the threshold = too weak to quantify, mostly under pKd 3.1 to 4. Conditions: plain residues with an end cap or a label only (N-terminal biotin on a linker: ado-ado).
In the case of MLPANYVEAI [NEB, P20929], the pKd result was “below the threshold”.
Turning to TKDKVQETQI [LRRC4, Q9HBW1], the pKd came out at 5.19.

The target of the next experiment is T7, DFNB31_1, Q9P202.
T7 sequence (Q9P202 135-233, limits assumed, looked up): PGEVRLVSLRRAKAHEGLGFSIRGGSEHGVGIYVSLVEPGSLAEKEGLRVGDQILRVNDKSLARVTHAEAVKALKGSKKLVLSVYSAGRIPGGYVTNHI
In words: holdup assay. Conditions: plain residues with an end cap or a label only (N-terminal biotin on a linker: ado-ado). Also noted: key: below the threshold = too weak to quantify, mostly under pKd 3.1 to 4.
As to MLPANYVEAI [NEB, P20929], the pKd result is given as “below the threshold”.
TKDKVQETQI [LRRC4, Q9HBW1] gave a negative-log Kd (pKd) of 5.43.

The target of the next experiment is GRIP2_3, Q9C0E4. In words: holdup assay. Set-up: key: below the threshold = too weak to quantify, mostly under pKd 3.1 to 4. Conditions: plain residues with an end cap or a label only (N-terminal biotin on a linker: ado-ado).
Chain of GRIP2_3, Q9C0E4 (Q9C0E4 238-339): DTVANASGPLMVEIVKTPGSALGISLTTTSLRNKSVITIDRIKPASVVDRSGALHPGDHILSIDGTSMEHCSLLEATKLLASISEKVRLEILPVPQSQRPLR
Regarding MLPANYVEAI [NEB, P20929], the pKd result is given as “below the threshold”.
In the case of TKDKVQETQI [LRRC4, Q9HBW1], the pKd result is given as “below the threshold”.

A further experiment addresses T8, SIPA1L2, Q9P2F8.
T8 sequence (Q9P2F8 945-1036, limits assumed, looked up): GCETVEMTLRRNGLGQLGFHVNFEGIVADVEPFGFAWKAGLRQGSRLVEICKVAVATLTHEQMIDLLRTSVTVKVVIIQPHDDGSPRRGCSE
In words: holdup assay. Also noted: key: below the threshold = too weak to quantify, mostly under pKd 3.1 to 4. The settings on record: plain residues with an end cap or a label only (N-terminal biotin on a linker: ado-ado).
On to MLPANYVEAI [NEB, P20929], for which the pKd result is reported as “below the threshold”.
On the same count and under the same terms, next, TKDKVQETQI [LRRC4, Q9HBW1]: “below the threshold”.

For a further experiment, the target named is T9, PARD3B_1, Q8TEW8.
T9 sequence (Q8TEW8 196-299, limits assumed, looked up): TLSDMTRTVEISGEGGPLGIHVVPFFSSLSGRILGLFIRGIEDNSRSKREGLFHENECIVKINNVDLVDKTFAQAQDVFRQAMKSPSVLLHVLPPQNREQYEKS
In words: holdup assay. Set-up: key: below the threshold = too weak to quantify, mostly under pKd 3.1 to 4. The settings on record: plain residues with an end cap or a label only (N-terminal biotin on a linker: ado-ado).
MLPANYVEAI [NEB, P20929]: the pKd entry is reported as “below the threshold”.
TKDKVQETQI [LRRC4, Q9HBW1] displayed a pKd of 3.76.

The next experiment concerns the target T10, DFNB31_3, Q9P202.
T10 sequence (Q9P202 811-907, limits assumed, looked up): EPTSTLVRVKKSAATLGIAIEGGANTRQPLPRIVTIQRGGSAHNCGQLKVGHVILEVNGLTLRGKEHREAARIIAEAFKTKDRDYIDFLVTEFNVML
In words: holdup assay. Conditions: plain residues with an end cap or a label only (N-terminal biotin on a linker: ado-ado). Set-up: key: below the threshold = too weak to quantify, mostly under pKd 3.1 to 4.
For MLPANYVEAI [NEB, P20929], the pKd result is “below the threshold”.
TKDKVQETQI [LRRC4, Q9HBW1] displayed a pKd of 4.11.

For a further experiment, the target named is T11, SNTA1, Q13424.
T11 sequence (Q13424 82-180, limits assumed, looked up): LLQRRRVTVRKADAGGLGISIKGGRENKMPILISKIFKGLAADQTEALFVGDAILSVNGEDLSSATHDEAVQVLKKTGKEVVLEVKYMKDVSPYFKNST
In words: holdup assay. Set-up: key: below the threshold = too weak to quantify, mostly under pKd 3.1 to 4. The settings on record: plain residues with an end cap or a label only (N-terminal biotin on a linker: ado-ado).
Take MLPANYVEAI [NEB, P20929]: the pKd result is recorded as “below the threshold”.
TKDKVQETQI [LRRC4, Q9HBW1] gave a pKd of 4.88.

The target of a further experiment is T12, ARHGAP21, Q5T5U3.
T12 sequence (Q5T5U3 45-169, limits assumed, looked up): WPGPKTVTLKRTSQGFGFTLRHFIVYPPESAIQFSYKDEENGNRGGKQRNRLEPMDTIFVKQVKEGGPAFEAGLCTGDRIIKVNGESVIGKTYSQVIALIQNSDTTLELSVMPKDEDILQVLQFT
Nature of the experiment: holdup assay. Set-up: key: below the threshold = too weak to quantify, mostly under pKd 3.1 to 4. The settings on record: plain residues with an end cap or a label only (N-terminal biotin on a linker: ado-ado).
On to MLPANYVEAI [NEB, P20929], for which the pKd entry is listed as “below the threshold”.
The same measure, in the same setting: the value for TKDKVQETQI [LRRC4, Q9HBW1] was 4.05.

The next experiment has as its target TJP1_2, Q07157. In words: holdup assay. The settings on record: plain residues with an end cap or a label only (N-terminal biotin on a linker: ado-ado). Set-up: key: below the threshold = too weak to quantify, mostly under pKd 3.1 to 4.
For MLPANYVEAI [NEB, P20929], the pKd entry is recorded as “below the threshold”.
On the same count and under the same terms, the value for TKDKVQETQI [LRRC4, Q9HBW1] was 3.64.

The target in another experiment is T13, TJP3_3, O95049.
T13 sequence (O95049 375-456, limits assumed, looked up): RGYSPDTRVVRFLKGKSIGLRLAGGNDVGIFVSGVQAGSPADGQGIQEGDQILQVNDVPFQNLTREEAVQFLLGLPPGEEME
Nature of the experiment: holdup assay. Also noted: key: below the threshold = too weak to quantify, mostly under pKd 3.1 to 4. Conditions: plain residues with an end cap or a label only (N-terminal biotin on a linker: ado-ado).
As to MLPANYVEAI [NEB, P20929], the pKd result was “below the threshold”.
Still for that read-out and setting: the value for TKDKVQETQI [LRRC4, Q9HBW1] was “below the threshold”.

A further experiment deals with LIMK2, P53671. Nature of the experiment: holdup assay. Set-up: key: below the threshold = too weak to quantify, mostly under pKd 3.1 to 4. The settings on record: plain residues with an end cap or a label only (N-terminal biotin on a linker: ado-ado).
Chain of LIMK2, P53671 (P53671 143-248): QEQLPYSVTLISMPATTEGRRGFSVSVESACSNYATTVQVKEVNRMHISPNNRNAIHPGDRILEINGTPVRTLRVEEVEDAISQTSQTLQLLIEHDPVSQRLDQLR
Turning to MLPANYVEAI [NEB, P20929], the pKd result was “below the threshold”.
Take TKDKVQETQI [LRRC4, Q9HBW1]: the pKd entry is recorded as “below the threshold”.

What is called pKd is the Kd on a negative log10 scale, so that one unit is a factor of ten.
